According to US8063008B2, “Enzymatic production of peracids using perhydrolytic enzymes” (E. I. du Pont de Nemours and Company, priority 2005, dated 2011):

Tests used:
Type in all cases: biochemical
[1] = Enzymatic perhydrolysis of triacetin using a combination of lipase and Alcalase at pH 4.0 and 6.5 (Example 22); details: H2O2 500 mM, 1 mg lipase, 20 μL Alcalase
Experimental: Reaction mixtures were prepared containing 1 mg lipase (A “Amano” 12 (Amano), Validase AN (Valley Research), or ICR-110 (BioCatalytics)), and 20 μL Alcalase® (Novozymes) in 1.0 mL of 50 mM buffer (either sodium acetate/acetic acid buffer at pH 4.0, or potassium phosphate buffer at pH 6.5), additionally containing triacetin (250 mM) and hydrogen peroxide (500 mM). […] A portion of the filtered reaction samples was diluted 1:10 with dd water and analyzed for hydrogen peroxide, and the remaining portion of the sample was directly analyzed for peracid using the HPLC assay method (Table 27). Reactions were also run with lipase alone or Alcalase® alone for comparison of peracetic acid concentrations produced without the combination of lipase and Alcalase®.

[2] = Enzymatic perhydrolysis of a mixture of diacetin (250 mM), triacetin (88 mM) and monoacetin (192 mM) using lipase and Alcalase at pH 4.0 and 6.5 (Example 23); details: 1 mg lipase, 20 μL Alcalase
Experimental: Reaction mixtures were prepared containing 1 mg lipase (A “Amano” 12 (Amano), Validase AN (Valley Research), or ICR-110 (BioCatalytics)), and 20 μL Alcalase® (Novozymes) in 1.0 mL of 50 mM buffer (either sodium acetate/acetic acid buffer at pH 4.0, or potassium phosphate buffer at pH 6.5), additionally containing a mixture of diacetin (250 mM), triacetin (88 mM) and monoacetin (192 mM) and hydrogen peroxide (500 mM). […] A portion of the filtered reaction samples was diluted 1:10 with dd water and analyzed for hydrogen peroxide, and the remaining portion of the sample was directly analyzed for peracid using the HPLC assay method (Table 28). Reactions were also run with lipase alone or Alcalase® alone for comparison of peracetic acid concentrations produced without the combination of lipase and Alcalase®.

[3] = Protease-catalyzed perhydrolysis of acetamide at pH 4.0 (Example 6); details: pH 4.0, 500 mM H2O2, 1 mg protease
Experimental: (§1) Into a 4-mL glass vial with stir bar was added 1 mg protease (Table 6) in 0.050 mL of 50 mM sodium acetate/acetic acid buffer (pH 4.0), 0.900 mL of an aqueous mixture containing either a) acetamide (278 mM) in 50 mM sodium acetate/acetic acid buffer (pH 4.0) or b) diacetamide (278 mM) in 50 mM sodium acetate/acetic acid buffer (pH 4.0), and 0.052 mL 30% hydrogen peroxide (500 mM final concentration). […] A portion of the filtered reaction samples was diluted 1:10 with dd water and analyzed for hydrogen peroxide, and the remaining portion of the sample was directly analyzed for peracid using the HPLC assay method (Table 7).

[4] = Protease-catalyzed perhydrolysis of acetamide at pH 6.5 (Example 9); details: pH 6.5, 500 mM H2O2, 1 mg protease
Experimental: as §1, with “potassium phosphate” for “sodium acetate/acetic acid”, “6.5),” for “4.0),”, “6.5)” for “4.0)”, “10).” for “7).”

[5] = Protease-catalyzed perhydrolysis of diacetamide at pH 6.5 (Example 9); details: pH 6.5, 500 mM H2O2, 1 mg protease
Experimental: as §1, with “potassium phosphate” for “sodium acetate/acetic acid”, “6.5),” for “4.0),”, “6.5)” for “4.0)”, “10).” for “7).”

[6] = Enzymatic perhydrolysis of triacetin using a combination of lipase and proteases (Proteinase K, Pronase) at pH 4.0 and 6.5 (Example 10); details: H2O2 500 mM, 1 mg lipase, 0.3 mg Proteinase K, 1.2 mg Pronase
Experimental: Reaction mixtures were prepared containing 1 mg lipase (ICR 101, ICR-110, or ICR-117, BioCatalytics, Pasadena, Calif.), 0.3 mg Proteinase K (T. album), and 1.2 mg of Pronase in 1.0 mL of 50 mM buffer (either sodium acetate/acetic acid buffer at pH 4.0, or potassium phosphate buffer at pH 6.5), additionally containing triacetin (250 mM) and hydrogen peroxide (500 mM). […] A portion of the filtered reaction samples was diluted 1:10 with dd water and analyzed for hydrogen peroxide, and the remaining portion of the sample was directly analyzed for peracid using the HPLC assay method (Table 11). Reactions were also run with lipase alone or protease(s) alone for comparison of peracetic acid concentrations produced without the combination of lipase and protease(s).

[7] = Protease-catalyzed perhydrolysis of diacetamide at pH 4.0 (Example 6); details: pH 4.0, 500 mM H2O2, 1 mg protease
Experimental: as §1

[8] = Protease-catalyzed perhydrolysis of triacetin at pH 4.0 (Example 7); details: pH 4.0, 500 mM H2O2, 1 mg protease
Experimental: Into a 4-mL glass vial with stir bar was added 1 mg protease (Table 6) in 0.050 mL of 50 mM sodium acetate/acetic acid buffer (pH 4.0), 0.900 mL of an aqueous mixture containing triacetin (278 mM) in 50 mM sodium acetate/acetic acid buffer (pH 4.0), and 0.052 mL 30% hydrogen peroxide (500 mM final concentration). […] A portion of the filtered reaction samples was diluted 1:10 with dd water and analyzed for hydrogen peroxide, and the remaining portion of the sample was directly analyzed for peracid using the HPLC assay method (Table 8).

[9] = Protease-catalyzed perhydrolysis of triacetin at pH 6.5 (Example 8); details: pH 6.5, 500 mM H2O2, 1 mg protease
Experimental: The analytical procedure described by U. Karst et al. (Anal. Chem., 69 (17):3623-3627 (1997)) was employed, as described herein, for analysis of product mixtures containing peracid and hydrogen peroxide. Briefly, the concentration of peracetic acid (PAA) in analyzed samples ranged from 0.025 mM-10 mM, and the concentration of H2O2 ranged from 0.075 mM-3 mM. Reaction mixtures containing peracid and/or hydrogen peroxide were, if necessary prior to analysis, diluted to produce a concentration of peracid or peroxide in these ranges. […] At the end of 30 minutes, 0.100 mL of 10 mM N,N-diethyl-m-toluamide (DEET, HPLC external standard) was added and the resulting solution analyzed by HPLC: Supelco Discovery C8 10-cm column with pre-column, 10-μL injection, UV detection at 225 nm, solvent A: acetonitrile, solvent B: deionized water, 1 mL/min gradient as follows: […]
Into a 4-mL glass vial with stir bar was added 1 mg protease (Table 6) in 0.050 mL of 50 mM sodium phosphate buffer (pH 6.5), 0.900 mL of an aqueous mixture containing triacetin (278 mM) in 50 mM phosphate buffer (pH 6.5), and 0.052 mL 30% hydrogen peroxide (500 mM final concentration). […] A portion of the filtered reaction samples was diluted 1:10 with dd water and analyzed for hydrogen peroxide, and the remaining portion of the sample was directly analyzed for peracid using the HPLC assay method (Table 9).

B1: Alcalase ®: Novozymes; subtilisin Carlsberg or subtilisin A from Bacillus licheniformis (protein, UniProt P00780 106-379, looked up)
Subtilisin Carlsberg: AQTVPYGIPLIKADKVQAQGFKGANVKVAVLDTGIQASHPDLNVVGGASFVAGEAYNTDGNGHGTHVAGTVAALDNTTGVLGVAPSVSLYAVKVLNSSGSGSYSGIVSGIEWATTNGMDVINMSLGGASGSTAMKQAVDNAYAKGVVVVAAAGNSGSSGNTNTIGYPAKYDSVIAVGAVDSNSNRASFSSVGAELEVMAPGAGVYSTYPTNTYATLNGTSMASPHVAGAAALILSKHPNLSASQVRNRLSSTATYLGSSFYYGKGLINVEAAAQ
For B1, the “peracetic acid (ppm), 5 min” value ([1]; pH 4.0, triacetin 250 mM) was 0 ppm, the “peracetic acid (ppm), 30 min” value ([1]; pH 4.0, triacetin 250 mM) was 0 ppm and the “peracetic acid (ppm), 5 min” value ([1]; pH 6.5, triacetin 250 mM) was 180 ppm. For the same molecule, the “peracetic acid (ppm), 30 min” value ([1]; pH 6.5, triacetin 250 mM) was 330 ppm, the “peracetic acid (ppm), 5 min” value ([2]; pH 4.0, H2O2 500 mM) was 0 ppm and the “peracetic acid (ppm), 30 min” value ([2]; pH 4.0, H2O2 500 mM) was 20 ppm. For the same molecule, the “peracetic acid (ppm), 5 min” value ([2]; pH 6.5, H2O2 500 mM) was 110 ppm and the “peracetic acid (ppm), 30 min” value ([2]; pH 6.5, H2O2 500 mM) was 210 ppm.

B2: Proteinase K, T. album: Proteinase K, T. album, Novagen 70663; a fungal subtilisin from Tritirachium album (protein, UniProt P06873 106-384, looked up)
Proteinase K: AAQTNAPWGLARISSTSPGTSTYYYDESAGQGSCVYVIDTGIEASHPEFEGRAQMVKTYYYSSRDGNGHGTHCAGTVGSRTYGVAKKTQLFGVKVLDDNGSGQYSTIIAGMDFVASDKNNRNCPKGVVASLSLGGGYSSSVNSAAARLQSSGVMVAVAAGNNNADARNYSPASEPSVCTVGASDRYDRRSSFSNYGSVLDIFGPGTSILSTWIGGSTRSISGTSMATPHVAGLAAYLMTLGKTTAASACRYIADTANKGDLSNIPFGTVNLLAYNNYQA
In the case of B2, the “acetamide (250 mM) peracetic acid (ppm), 5 min” value [3] is reported as 34 ppm, the “acetamide (250 mM) peracetic acid (ppm), 30 min” value [3] is reported as 49 ppm and the “acetamide (250 mM) peracetic acid (ppm), 5 min” value [4] is reported as 270 ppm. The “acetamide (250 mM) peracetic acid (ppm), 30 min” value [4] was 214 ppm, the “diacetamide (250 mM) peracetic acid (ppm), 5 min” value (from here on “diacetamide … 5 min”) [5] was 104 ppm and the “diacetamide (250 mM) peracetic acid (ppm), 30 min” value (from here on “diacetamide … 30 min”) [5] was 100 ppm. For the same molecule, the “peracetic acid (ppm), 5 min” value ([6]; pH 4.0, triacetin 250 mM) was 24 ppm, the “peracetic acid (ppm), 30 min” value ([6]; pH 4.0, triacetin 250 mM) was 7 ppm and the “peracetic acid (ppm), 5 min” value ([6]; pH 6.5, triacetin 250 mM) was 323 ppm. For the same molecule, the “peracetic acid (ppm), 30 min” value ([6]; pH 6.5, triacetin 250 mM) was 669 ppm.

B3: Papain: Papain, papaya latex, Sigma P3125 (protein, UniProt P00784 134-345, looked up)
Papain: IPEYVDWRQKGAVTPVKNQGSCGSCWAFSAVVTIEGIIKIRTGNLNEYSEQELLDCDRRSYGCNGGYPWSALQLVAQYGIHYRNTYPYEGVQRYCRSREKGPYAAKTDGVRQVQPYNEGALLYSIANQPVSVVLEAAGKDFQLYRGGIFVGPCGNKVDHAVAAVGYGPNYILIKNSWGTGWGENGYIRIKRGTGNSYGVCGLYTSSFYPVKN
With B3 the “acetamide (250 mM) peracetic acid (ppm), 5 min” value [3] was 81 ppm, the “acetamide (250 mM) peracetic acid (ppm), 30 min” value [3] was 105 ppm and the “diacetamide … 5 min” value ([7]; 5 min) was 135 ppm. For the same molecule, the “diacetamide … 30 min” value ([7]; 30 min) was 172 ppm, the “triacetin (250 mM) peracetic acid (ppm), 5 min” value ([8]; 5 min) was 85 ppm and the “triacetin (250 mM) peracetic acid (ppm), 30 min” value ([8]; 30 min) was 48 ppm. For the same molecule, the “triacetin (250 mM) peracetic acid (ppm), 5 min” value ([9]; 5 min) was 203 ppm, the “triacetin (250 mM) peracetic acid (ppm), 30 min” value ([9]; 30 min) was 142 ppm and the “acetamide (250 mM) peracetic acid (ppm), 5 min” value [4] was 199 ppm. The “acetamide (250 mM) peracetic acid (ppm), 30 min” value [4] was 157 ppm, the “diacetamide … 5 min” value [5] was 342 ppm and the “diacetamide … 30 min” value [5] was 187 ppm.
